Like-named read-outs stand apart in the source and are kept apart here. Where no end group is shown, it is not given here. [ ]: non-standard residue; d: D form.
T1: GST-tagged TRIB3 (human, UniProt Q96RU7 1-358)
T1 chain: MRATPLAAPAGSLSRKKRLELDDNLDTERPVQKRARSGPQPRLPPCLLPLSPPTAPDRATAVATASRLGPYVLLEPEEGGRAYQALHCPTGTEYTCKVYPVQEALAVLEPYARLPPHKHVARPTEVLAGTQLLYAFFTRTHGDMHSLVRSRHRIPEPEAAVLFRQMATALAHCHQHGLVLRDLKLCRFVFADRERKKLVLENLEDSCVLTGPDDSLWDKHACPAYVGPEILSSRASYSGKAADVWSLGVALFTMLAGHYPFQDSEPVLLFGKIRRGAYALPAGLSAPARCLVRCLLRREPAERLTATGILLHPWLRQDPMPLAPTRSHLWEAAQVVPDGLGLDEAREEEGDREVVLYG


Columns and labels:
Assay in all cases: SPR
GST-tagged TRIB3 [1] = biological target: T1, GST-tagged TRIB3
GST-tagged TRIB3 [2] = biological target: T1, GST-tagged TRIB3
MAX protein (SPR) [3] = biological target: T2, MAX protein (SPR) (human, UniProt P61244 1-160)
T2 sequence (P61244 whole entry): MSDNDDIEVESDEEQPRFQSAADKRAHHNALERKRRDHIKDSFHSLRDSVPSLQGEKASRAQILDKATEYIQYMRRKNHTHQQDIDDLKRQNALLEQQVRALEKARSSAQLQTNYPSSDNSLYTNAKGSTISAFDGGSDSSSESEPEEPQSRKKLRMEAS

MAX protein (SPR) [4] = biological target: T2, MAX protein (SPR); remark: listed apart in the source
GST-tagged TRIB3 [5] = biological target: T1, GST-tagged TRIB3

Binder | Kd (GST-tagged TRIB3 [1]) | koff (GST-tagged TRIB3 [2]) | Kd (MAX protein (SPR) [3]) | koff (MAX protein (SPR) [4]) | koff (GST-tagged TRIB3 [5])
[dK][dV][dV][dI][dL][dK][dK][dA][dT][dA][dY][dI][dL][dS][dV] [CM2 peptide] | 8.17 µM | 0.0166 s⁻¹ |  |  | 
[dK][dR][dR][dE][dQ][dL][dK][dH][dK][dL][dE][dQ][dL][dR] [CM4 peptide] |  |  | 12.8 µM | 0.0417 s⁻¹ | 0.0769 s⁻¹

The remaining binders from weak to strong by Kd (GST-tagged TRIB3 [1]), led by results:

Kd (GST-tagged TRIB3 [1]) | koff (GST-tagged TRIB3 [2]) | Kd (MAX protein (SPR) [3]) | koff (MAX protein (SPR) [4]) | koff (GST-tagged TRIB3 [5]) | Binder
3.4 µM | 0.00531 s⁻¹ | 0.897 µM | 0.0099 s⁻¹ |  | [dE][dR][dQ][dR][dR][dN][dE][dL][dK][dR][dS][dF][dF][dA][dL][dR] [CM1 peptide]
0.707 µM | 0.000434 s⁻¹ |  |  |  | [dQ][dA][dE][dE][dQ][dK][dL][dI][dS][dE][dE][dD][dL][dL][dR] [CM3 peptide]
